Molecular target: the molecule itself
Assay: crystal structure

B1: coproheme decarboxylase (HemQ) from Geobacillus stearothermophilus (enzyme)
chain: MSEAAQTLDGWYCLHDFRTIDWSAWKTLPNEEREAAISEFLALVDQWETTESEKQGSHAVYTIVGQKADILFMILRPTLDELHEIETALNKTKLADYLLPAYSYVSVVELSNYLASGSEDPYQIPEVRRRLYPILPKTNYICFYPMDKRRQGNDNWYMLSMEQRRELMRAHGMTGRKYAGKVTQIITGSVGLDDFEWGVTLFSDDALQFKKLVYEMRFDEVSARFGEFGSFFVGTRLPMENVSSFFHV
stoichiometry N: 5
